Data as given in patent publication US20240209106A1 (BEIGENE SWITZERLAND, published 2024).
Residue numbers refer to the chain shown, from its start.

Assays:
[1] = target: T1, full-length human CD137 (huCD137) (human, UniProt Q07011 24-255); assay: flow cytometry on Hut78/huCD137 cells [panel B]
T1 construct: On transduced Hut78 cells (Hut78/huCD137), transiently on HEK293 cells, or natively on PBMC/T cells; also called TNFRSF9; 4-1BB

[2] = target: T2, human CEA on cells (human, UniProt P06731 35-685); assay: flow cytometry on CT26/CEA cells [panel A]
T2 construct: whole, on cells; also called CT26/CEA; MKN45
T2 sequence (looked up): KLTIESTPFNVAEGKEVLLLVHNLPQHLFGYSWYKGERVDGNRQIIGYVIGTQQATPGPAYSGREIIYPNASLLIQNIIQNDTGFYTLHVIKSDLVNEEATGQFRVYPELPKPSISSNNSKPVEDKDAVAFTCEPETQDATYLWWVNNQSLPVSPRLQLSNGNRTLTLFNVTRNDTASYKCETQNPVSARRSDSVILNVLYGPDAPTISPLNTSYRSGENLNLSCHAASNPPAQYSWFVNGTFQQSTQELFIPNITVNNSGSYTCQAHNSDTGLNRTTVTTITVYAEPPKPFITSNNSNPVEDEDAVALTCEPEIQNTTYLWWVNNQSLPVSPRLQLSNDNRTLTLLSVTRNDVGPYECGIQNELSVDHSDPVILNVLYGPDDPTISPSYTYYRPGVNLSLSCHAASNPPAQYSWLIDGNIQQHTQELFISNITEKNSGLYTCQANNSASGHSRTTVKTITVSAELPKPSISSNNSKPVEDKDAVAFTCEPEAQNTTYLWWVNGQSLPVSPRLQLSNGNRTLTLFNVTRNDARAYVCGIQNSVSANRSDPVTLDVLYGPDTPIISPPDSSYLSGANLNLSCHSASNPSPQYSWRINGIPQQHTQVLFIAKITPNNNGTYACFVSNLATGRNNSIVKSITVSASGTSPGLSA

[3] = target: T2, human CEA on cells; assay: flow cytometry on MKN45 cells [panel A]
[4] = target: T3, Glypican 3 (GPC3) on cells (human, UniProt P51654 25-554); assay: flow cytometry on HepG2 cells [panel C]
T3 construct: whole, on cells; also called HepG2; Huh7
T3 sequence (P51654 25-554 limits assumed): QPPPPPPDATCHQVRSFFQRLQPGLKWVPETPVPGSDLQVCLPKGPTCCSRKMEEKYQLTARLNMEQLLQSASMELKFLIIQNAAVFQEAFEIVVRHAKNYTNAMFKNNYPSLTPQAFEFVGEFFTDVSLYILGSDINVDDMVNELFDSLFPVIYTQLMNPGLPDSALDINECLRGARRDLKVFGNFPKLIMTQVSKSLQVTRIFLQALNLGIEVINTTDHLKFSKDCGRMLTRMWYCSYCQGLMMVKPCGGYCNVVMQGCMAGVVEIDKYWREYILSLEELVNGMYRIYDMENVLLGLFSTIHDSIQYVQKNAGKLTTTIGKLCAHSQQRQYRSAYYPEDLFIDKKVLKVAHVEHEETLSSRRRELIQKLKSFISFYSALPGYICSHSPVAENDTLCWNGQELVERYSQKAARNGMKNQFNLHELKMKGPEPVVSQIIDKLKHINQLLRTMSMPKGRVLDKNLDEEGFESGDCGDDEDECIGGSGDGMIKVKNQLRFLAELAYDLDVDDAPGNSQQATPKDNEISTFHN

[5] = target: T4, human CD137 ECD (AA 24-183) (human, UniProt Q07011 24-183); assay: method and huCD137 construct not stated
T4 construct: also called huCD137

[6] = target: T5, GPC3 (protein used for the TAA KD of Table 23) (UniProt P51654 25-559, limits assumed); assay: method and GPC3 construct not stated (TAA KD)
T5 construct: also called Glypican 3
T5 sequence (P51654 25-559 limits assumed): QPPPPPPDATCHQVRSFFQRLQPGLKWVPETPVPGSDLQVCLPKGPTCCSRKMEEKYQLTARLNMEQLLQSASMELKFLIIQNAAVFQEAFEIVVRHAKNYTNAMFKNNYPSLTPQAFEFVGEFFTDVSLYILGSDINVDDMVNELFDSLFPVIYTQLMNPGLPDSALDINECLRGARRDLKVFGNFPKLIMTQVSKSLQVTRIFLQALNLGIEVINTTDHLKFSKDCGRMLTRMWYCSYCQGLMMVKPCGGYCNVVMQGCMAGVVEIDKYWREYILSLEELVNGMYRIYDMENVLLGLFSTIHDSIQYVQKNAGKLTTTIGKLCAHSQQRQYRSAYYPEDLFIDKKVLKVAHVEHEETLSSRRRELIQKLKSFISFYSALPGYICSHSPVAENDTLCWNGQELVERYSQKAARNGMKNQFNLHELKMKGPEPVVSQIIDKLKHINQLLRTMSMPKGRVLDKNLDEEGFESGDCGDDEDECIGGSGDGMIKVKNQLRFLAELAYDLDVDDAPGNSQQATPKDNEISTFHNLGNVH

[7] = target: T1, full-length human CD137 (huCD137); assay: flow cytometry ligand competition on Hut78/huCD137: human CD137 ligand ECD-mIgG2a in the presence of serially diluted antibody, ligand detected with goat anti-murine IgG-APC; blocked ligand: m5
[8] = target: T6, TNFRSF1A(CD120a) (UniProt P19438 22-211, limits assumed); assay: antigen ELISA, receptor coated at 10 ug/ml, detection with HRP anti-human IgG
T6 construct: Bought protein
T6 sequence (looked up): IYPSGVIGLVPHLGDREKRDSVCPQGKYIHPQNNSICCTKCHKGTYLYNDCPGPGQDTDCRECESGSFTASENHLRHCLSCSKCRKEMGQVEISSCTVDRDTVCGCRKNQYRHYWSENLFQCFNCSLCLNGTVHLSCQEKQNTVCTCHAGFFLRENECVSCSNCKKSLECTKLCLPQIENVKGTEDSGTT

[9] = target: T7, TNFRSF1B(CD120b) (UniProt P20333 23-257); assay: as above
T7 construct: Bought protein
T7 sequence (looked up): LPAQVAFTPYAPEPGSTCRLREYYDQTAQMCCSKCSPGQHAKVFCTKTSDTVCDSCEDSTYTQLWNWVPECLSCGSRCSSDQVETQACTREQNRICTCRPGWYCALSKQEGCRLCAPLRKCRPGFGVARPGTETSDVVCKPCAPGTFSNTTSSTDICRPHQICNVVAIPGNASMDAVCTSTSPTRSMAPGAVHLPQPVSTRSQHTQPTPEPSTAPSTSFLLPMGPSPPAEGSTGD

[10] = target: T8, TNFRSF7(CD27) (UniProt P26842 21-192, limits assumed); assay: as above
T8 construct: Bought protein
T8 sequence (looked up): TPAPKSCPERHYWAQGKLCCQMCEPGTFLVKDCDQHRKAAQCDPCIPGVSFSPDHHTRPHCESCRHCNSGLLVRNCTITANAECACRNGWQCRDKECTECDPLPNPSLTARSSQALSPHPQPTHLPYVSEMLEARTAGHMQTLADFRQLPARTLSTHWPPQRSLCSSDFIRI

[11] = target: T9, human CD40 ECD (human, UniProt P25942 21-194); assay: as above
T9 construct: also called TNFRSF5(CD40); huCD40
T9 sequence (P25942 21-194 limits assumed): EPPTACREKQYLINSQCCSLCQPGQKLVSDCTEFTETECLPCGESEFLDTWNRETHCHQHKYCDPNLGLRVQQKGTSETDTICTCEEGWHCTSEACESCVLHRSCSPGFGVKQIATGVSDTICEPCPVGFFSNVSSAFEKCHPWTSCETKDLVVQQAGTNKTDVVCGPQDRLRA

[12] = target: human CD137 ECD-mIgG2a (human); assay: competition ELISA on coated human CD137 ECD-mIgG2a: BGA-5623 (IgG4) in the presence of serially diluted human CD137 ligand ECD-mIgG2a, bound antibody detected with HRP anti-human IgG; competitor: BGA-5623 (IgG4)
Sequence of human CD137 ECD-mIgG2a (human) (chain, as listed by the source limits assumed): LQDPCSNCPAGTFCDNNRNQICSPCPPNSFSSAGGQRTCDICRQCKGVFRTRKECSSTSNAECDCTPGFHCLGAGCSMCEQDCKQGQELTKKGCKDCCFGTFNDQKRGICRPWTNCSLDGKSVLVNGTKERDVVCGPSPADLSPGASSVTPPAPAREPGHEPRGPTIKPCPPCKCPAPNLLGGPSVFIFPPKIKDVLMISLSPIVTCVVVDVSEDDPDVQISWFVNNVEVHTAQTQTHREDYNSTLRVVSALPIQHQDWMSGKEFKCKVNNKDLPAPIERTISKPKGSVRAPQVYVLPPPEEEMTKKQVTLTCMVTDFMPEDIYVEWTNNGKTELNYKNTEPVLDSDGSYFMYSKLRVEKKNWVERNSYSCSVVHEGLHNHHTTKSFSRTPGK

[13] = target: T1, full-length human CD137 (huCD137); assay: flow cytometry ligand competition on Hut78/huCD137: BGA-4712 (VH-Fc) in the presence of serially diluted human CD137 ligand-mIgG2a, bound BGA-4712 detected with anti-hu IgG Fc; competitor: BGA-4712 [panel C]
[14] = target: human CD137 ECD-mIgG2a (human); assay: SPR, antibody captured on anti-human Fc surface; analyte taken as human CD137 ECD-mIgG2a
[15] = target: human CD137 ECD-mIgG2a (human); assay: SPR, human CD137 ECD-mIgG2a
[16] = target: human CD137 ECD-mIgG2a (human); assay: SPR, multispecific antibody captured on anti-human IgG Fc chip, human CD137 ECD-mIgG2a flowed over; Table 15, comparison run with the affinity-matured variants
[17] = target: T1, full-length human CD137 (huCD137); assay: flow cytometry on Hut78/huCD137 cells
[18] = target: T10, recombinant CEA protein (human, UniProt P06731 35-685, limits assumed); assay: method and CEA construct not stated (TAA KD)
T10 construct: also called recombinant soluble CEA; in-house made recombinant CEA proteins
T10 sequence (looked up): T2 sequence (looked up)

T1 sequence (Q07011 24-255 limits assumed): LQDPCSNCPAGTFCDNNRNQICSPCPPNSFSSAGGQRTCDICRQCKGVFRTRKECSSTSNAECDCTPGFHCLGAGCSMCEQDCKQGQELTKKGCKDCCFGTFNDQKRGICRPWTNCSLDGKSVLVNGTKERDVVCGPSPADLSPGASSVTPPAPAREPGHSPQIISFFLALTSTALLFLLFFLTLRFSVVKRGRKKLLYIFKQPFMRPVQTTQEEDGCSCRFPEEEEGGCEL

B1: anti-CEA Ab (IgG1) (antibody, V domains shown)
VH: QVQLVQSGAEVKKPGASVKVSCKASGYIFTSYYLHWVRQAPGQGLEWIGYINPQTGKTSYAQKFQGRVTMTRDTSTSTVYMELSSLRSEDTAVYYCAREYGNYNYPLDYWGQGTLVTVSS
VL: DIQMTQSPSSLSASVGDRVTITCRASENQYGYLAWYQQKPGKVPKLLIYNYKNLVEGVPSRFSGSGSGTDFTLTISSLQPEDVATYYCQHHLGTPYTFGQGTKVEIKR
notes: also called anti-CEA antibody
binding result [1]: no binding (tested: just above 10^2 ug/ml) | EC50 (read off the curve) [2]: ~1 µg/mL | EC50 (read off the curve) [3]: ~0.5 µg/mL

B2: BE-830 (GPC3 × CD137) (bispecific antibody, human IgG1, kappa)
heavy: not shown
light: DVVMTQSPLSLPVTPGEPASISCRSSQSLVHSNRNTYLHWYLQKPGQSPQLLIYKVSNRFSGVPDRFSGSGSGTDFTLKISRVEAEDVGVYYCSQNTHVPPTFGQGTKLEIKRTVAAPSVFIFPPSDEQLKSGTASVVCLLNNFYPREAKVQWKVDNALQSGNSQESVTEQDSKDSTYSLSSTLTLSKADYEKHKVYACEVTHQGLSSPVTKSFNRGEC
notes: also called CD137×GPC3; GPC3×CD137 multispecific antibody BE-830
EC50 (read off the curve) [4]: ~0.7 µg/mL | Kd [5]: 182 nM | Kd [6]: 1.47 nM

B3: Urelumab analog (antibody, human IgG4 S228P, kappa, V domains shown)
VH: QVQLQQWGAGLLKPSETLSLTCAVYGGSFSGYYWSWIRQSPEKGLEWIGEINHGGYVTYNPSLESRVTISVDTSKNQFSLKLSSVTAADTAVYYCARDYGPGNYDWYFDLWGRGTLVTVSS
VL: EIVLTQSPATLSLSPGERATLSCRASQSVSSYLAWYQQKPGQAPRLLIYDASNRATGIPARFSGSGSGTDFTLTISSLEPEDFAVYYCQQRSNWPPALTFGGGTKVEIKR
IC50 (read off the curve) [7]: ~0.03 µg/mL | binding result [8]: no binding | binding result [9]: no binding | binding result [10]: no binding | binding result [11]: no binding

B4: human CD137 ligand-mIgG2a (Fc fusion)
chain: EPRGPTIKPCPPCKCPAPNLLGGPSVFIFPPKIKDVLMISLSPIVTCVVVDVSEDDPDVQISWFVNNVEVHTAQTQTHREDYNSTLRVVSALPIQHQDWMSGKEFKCKVNNKDLPAPIERTISKPKGSVRAPQVYVLPPPEEEMTKKQVTLTCMVTDFMPEDIYVEWTNNGKTELNYKNTEPVLDSDGSYFMYSKLRVEKKNWVERNSYSCSVVHEGLHNHHTTKSFSRTPGKGGGGSREGPELSPDDPAGLLDLRQGMFAQLVAQNVLLIDGPLSWYSDPGLAGVSLTGGLSYKEDTKELVVAKAGVYYVFFQLELRRVVAGEGSGSVSLALHLQPLRSAAGAAALALTVDLPPASSEARNSAFGFQGRLLHLSAGQRLGVHLHTEARARHAWQLTQGATVLGLFRVTPEIPAGLPSPRSE
notes: also called human CD137 ligand ECD-mIgG2a; huCD137 ligand
IC50 (read off the curve) [12]: ~1 µg/mL | IC50 [13]: 0.42 µg/mL

B5: A-CD137×CEA-M3 (bispecific antibody, human IgG1, kappa)
heavy: QVQLVQSGAEVKKPGASVKVSCKASGYIFTSYYLHWVRQAPGQGLEWIGYINPQTGKTSYAQKFQGRVTMTRDTSTSTVYMELSSLRSEDTAVYYCAREYGNYNYPLDYWGQGTLVTVSSASTKGPSVFPLAPSSKSTSGGTAALGCLVKDYFPEPVTVSWNSGALTSGVHTFPAVLQSSGLYSLSSVVTVPSSSLGTQTYICNVNHKPSNTKVDKKVEPKSCDKTHTCPPCPAPPAAGPSVFLFPPKPKDTLMISRTPEVTCVVVDVSHEDPEVKFNWYVDGVEVHNAKTKPREEQYNSTYRVVSVLTVLHQDWLNGKEYKCKVSNKALAAPIEKTISKAKGQPREPQVYTLPPSREEMTKNQVSLTCLVKGFYPSDIAVEWESNGQPENNYKTTPPVLDSDGSFFLYSKLTVDKSRWQQGNVFSCSVMHEALHNHYTQKSLSLSPGKGGGGSEVQLLESGGGLVQPGGSLRLSCAASGFTLSAEDVGWVRQAPGKGLEWVSAILDFGGSTYYAESVKGRFTISRDNAKNTLYLQMSSLRAEDTAVYYCARVVYHAGGGVTFDYWGQGTLVTVSS
light: DIQMTQSPSSLSASVGDRVTITCRASENQYGYLAWYQQKPGKVPKLLIYNYKNLVEGVPSRFSGSGSGTDFTLTISSLQPEDVATYYCQHHLGTPYTFGQGTKVEIKRTVAAPSVFIFPPSDEQLKSGTASVVCLLNNFYPREAKVQWKVDNALQSGNSQESVTEQDSKDSTYSLSSTLTLSKADYEKHKVYACEVTHQGLSSPVTKSFNRGEC
notes: The chain is therefore built from its pieces
Kd [14]: 255 nM | koff [14]: 0.00267 s⁻¹ | kon [14]: 10500 M⁻¹ s⁻¹ | Kd [15]: 255 nM | Kd [16]: 289 nM | EC50 [17]: 0.52 µg/mL

B6: BE-146 (CEA × CD137) (bispecific antibody, human IgG1, kappa)
heavy: B5 heavy with L483V, F508K, V553I, Y565T, W566R, L571Q
light: B5 light
notes: Module ratio 2:2
Kd [5]: 167 nM | Kd [18]: 6.5 nM | EC50 (read off the curve) [3]: ~0.5 µg/mL
